Series [1] deals with Fc fragment of human IgG4 (IdeS-cleaved; identical for IgG4 and IgG4Pro) (human). In words: AUC; sedimentation velocity, absorbance 280 nm, 20 °C, 40,000 rpm, three concentrations in 1:3 dilutions from 0.5 mg/mL (0.5, 0.167, 0.056 mg/mL); Figure 2 in 10 mM sodium acetate, 50 mM NaCl, pH 5.0; oligomer told from sw against ~50 kDa.
Series [2] deals with the molecule itself. Described as above.

For orientation: stoichiometry N means the number of molecules, sites or subunits per partner or assembly.

In series [1], “Fc fragment of human IgG4 (IdeS-cleaved; identical for IgG4 and IgG4Pro) (domain or fragment)” showed a stoichiometry N of 2.

B1: Fc fragment of human IgG2 (IdeS-cleaved) (domain or fragment)
chain: GPSVFLFPPKPKDTLMISRTPEVTCVVVDVSHEDPEVQFNWYVDGVEVHNAKTKPREEQFNSTFRVVSVLTVVHQDWLNGKEYKCKVSNKGLPAPIEKTISKTKGQPREPQVYTLPPSREEMTKNQVSLTCLVKGFYPSDIAVEWESNGQPENNYKTTPPMLDSDGSFFLYSKLTVDKSRWQQGNVFSCSVMHEALHNHYTQKSLSLSPGK
modifications: asparagine (N)-linked glycoforms G0F, G1F, G2F (told of the intact IgGs)
For the molecule B1, the “stoichiometry N” value in series [2] was found to be 2.

For the origin of these results see paper PMC6640702, “IgG Charge: Practical and Biological Implications” (Antibodies, 2019).
